Columns and labels:
[1] = target: DENV3 NS5 wild type (Dengue virus serotype 3) (UniProt Q5UB51); assay: fluorescence titration; details: all adenosines are 1,N6-ethenoadenosine; Fluorescence: 50 mM Tris-HCl pH 7.5, 100 mM NaCl, 1 mM MgCl2, 1 mM DTT, 10% glycerol; EMSA: 20 mM Tris pH 7.4, 150 mM NaCl, 2 mM MgCl2, 5% glycerol, room …
[2] = target: DENV3 NS5 wild type (Dengue virus serotype 3) (UniProt Q5UB51); assay: fluorescence competition; details: Fluorescence: 50 mM Tris-HCl pH 7.5, 100 mM NaCl, 1 mM MgCl2, 1 mM DTT, 10% glycerol; EMSA: 20 mM Tris pH 7.4, 150 mM NaCl, 2 mM MgCl2, 5% glycerol, room …

Sequence of DENV3 NS5 wild type (Dengue virus serotype 3) (Q5UB51 2491-3390): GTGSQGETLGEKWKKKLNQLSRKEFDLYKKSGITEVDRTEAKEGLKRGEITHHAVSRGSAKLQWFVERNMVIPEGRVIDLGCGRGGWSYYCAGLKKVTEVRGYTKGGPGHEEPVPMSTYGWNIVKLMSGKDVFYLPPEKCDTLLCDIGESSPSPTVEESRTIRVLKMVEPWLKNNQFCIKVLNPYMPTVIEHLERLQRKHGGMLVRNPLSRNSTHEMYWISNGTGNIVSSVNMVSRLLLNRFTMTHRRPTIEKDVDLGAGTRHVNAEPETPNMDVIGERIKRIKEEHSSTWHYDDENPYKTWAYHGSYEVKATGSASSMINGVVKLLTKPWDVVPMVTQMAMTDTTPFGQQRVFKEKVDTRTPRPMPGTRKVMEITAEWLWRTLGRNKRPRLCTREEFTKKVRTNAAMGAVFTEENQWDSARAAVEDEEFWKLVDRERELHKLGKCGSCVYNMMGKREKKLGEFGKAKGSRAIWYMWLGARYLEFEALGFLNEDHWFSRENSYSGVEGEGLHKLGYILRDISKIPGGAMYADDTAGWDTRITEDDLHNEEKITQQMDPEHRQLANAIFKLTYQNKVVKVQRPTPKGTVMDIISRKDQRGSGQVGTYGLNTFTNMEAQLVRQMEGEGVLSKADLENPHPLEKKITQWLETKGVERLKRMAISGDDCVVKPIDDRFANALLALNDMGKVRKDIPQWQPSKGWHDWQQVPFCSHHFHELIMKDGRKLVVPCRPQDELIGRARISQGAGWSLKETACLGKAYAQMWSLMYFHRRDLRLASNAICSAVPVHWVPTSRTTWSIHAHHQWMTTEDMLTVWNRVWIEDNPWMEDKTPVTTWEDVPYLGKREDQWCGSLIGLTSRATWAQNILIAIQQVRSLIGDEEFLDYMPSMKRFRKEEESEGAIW

| Substance | Ka [1] | Ka [2] |
| --- | --- | --- |
| AAAAAAAAAAAAAAAAAAAA [εA(pεA)19] | 2.1e+06 M⁻¹ |  |
| tRNA-SLADENV |  | 4.8e+06 M⁻¹ |

Reference: publication PMC8100141
